Laboratory results: PMC8260879

Legend:
[1] = target: EphA4 WT fused to C-terminal mTURQ or EYFP (human) (UniProt P54764); test: fluorescence intensity fluctuation (FIF) analysis; molecular brightness in regions of the basolateral membrane of transfected HEK293 cells, no ligand, data over the whole range of receptor concentrations
[2] = target: EphA4 WT fused to C-terminal mTURQ or EYFP (human) (UniProt P54764); test: fluorescence intensity fluctuation (FIF) analysis; molecular brightness in transfected HEK293 cells in the presence of ephrinA5-Fc
[3] = target: EphA4 WT fused to C-terminal mTURQ or EYFP (human) (UniProt P54764); test: FRET or BRET; FSI-FRET as without ligand but with 0.5 μg/ml ephrinA5-Fc in the hypo-osmotic medium; monomer-dimer equilibrium: dimer to monomers
[4] = target: EphA4 WT fused to C-terminal mTURQ or EYFP (human) (UniProt P54764); test: FRET or BRET; FSI-FRET of mTURQ- and EYFP-tagged receptor in the plasma membrane of live HEK293T cells, no ligand, hypo-osmotic medium; fit of a monomer-dimer equilibrium (Equation 2): dimer to monomers; constants in two-dimensional concentration
[5] = target: EphA4 WT fused to C-terminal mTURQ or EYFP (human) (UniProt P54764); test: fluorescence intensity fluctuation (FIF) analysis; molecular brightness, no ligand, only the data at receptor concentrations above 3000 receptors/μm^2

- molecular brightness at the peak of the distribution [1]: < 2
- molecular brightness at the maximum of the distribution [2]: < 2
- stoichiometry N [3]: 2
- oligomeric fraction above 3000 receptors/μm^2 [4]: > 65%
- stoichiometry N [4]: 2
- stoichiometry N [5]: 2
Substance: EphA4 WT fused to C-terminal mTURQ or EYFP (from UniProt P54764-1 20-986) (receptor)
